Source: patent US20070015242

B1: matrix metalloproteinase-7 (matrilysin, MMP-7), active enzyme (enzyme, UniProt P09237 95-267, looked up, species assumed)
Matrilysin: YSLFPNSPKWTSKVVTYRIVSYTRDLPHITVDRLVSKALNMWGKEIPLHFRKVVWGTADIMIGFARGAHGDSYPFDGPGNTLAHAFAPGTGLGGDAHFDEDERWTDGSSLGINFLYAATHELGHSLGMGHSSDPNAVMYPTYGNGDPQNFKLSQDDIKGIQKLYGKRSNSRKK
modifications: APMA-activated

Molecular target: recombinant NC1 fragment of type XVIII collagen (UniProt P39061)
Sequence of UniProt P39061 (P39061 whole entry, looked up, the tested form may be a part): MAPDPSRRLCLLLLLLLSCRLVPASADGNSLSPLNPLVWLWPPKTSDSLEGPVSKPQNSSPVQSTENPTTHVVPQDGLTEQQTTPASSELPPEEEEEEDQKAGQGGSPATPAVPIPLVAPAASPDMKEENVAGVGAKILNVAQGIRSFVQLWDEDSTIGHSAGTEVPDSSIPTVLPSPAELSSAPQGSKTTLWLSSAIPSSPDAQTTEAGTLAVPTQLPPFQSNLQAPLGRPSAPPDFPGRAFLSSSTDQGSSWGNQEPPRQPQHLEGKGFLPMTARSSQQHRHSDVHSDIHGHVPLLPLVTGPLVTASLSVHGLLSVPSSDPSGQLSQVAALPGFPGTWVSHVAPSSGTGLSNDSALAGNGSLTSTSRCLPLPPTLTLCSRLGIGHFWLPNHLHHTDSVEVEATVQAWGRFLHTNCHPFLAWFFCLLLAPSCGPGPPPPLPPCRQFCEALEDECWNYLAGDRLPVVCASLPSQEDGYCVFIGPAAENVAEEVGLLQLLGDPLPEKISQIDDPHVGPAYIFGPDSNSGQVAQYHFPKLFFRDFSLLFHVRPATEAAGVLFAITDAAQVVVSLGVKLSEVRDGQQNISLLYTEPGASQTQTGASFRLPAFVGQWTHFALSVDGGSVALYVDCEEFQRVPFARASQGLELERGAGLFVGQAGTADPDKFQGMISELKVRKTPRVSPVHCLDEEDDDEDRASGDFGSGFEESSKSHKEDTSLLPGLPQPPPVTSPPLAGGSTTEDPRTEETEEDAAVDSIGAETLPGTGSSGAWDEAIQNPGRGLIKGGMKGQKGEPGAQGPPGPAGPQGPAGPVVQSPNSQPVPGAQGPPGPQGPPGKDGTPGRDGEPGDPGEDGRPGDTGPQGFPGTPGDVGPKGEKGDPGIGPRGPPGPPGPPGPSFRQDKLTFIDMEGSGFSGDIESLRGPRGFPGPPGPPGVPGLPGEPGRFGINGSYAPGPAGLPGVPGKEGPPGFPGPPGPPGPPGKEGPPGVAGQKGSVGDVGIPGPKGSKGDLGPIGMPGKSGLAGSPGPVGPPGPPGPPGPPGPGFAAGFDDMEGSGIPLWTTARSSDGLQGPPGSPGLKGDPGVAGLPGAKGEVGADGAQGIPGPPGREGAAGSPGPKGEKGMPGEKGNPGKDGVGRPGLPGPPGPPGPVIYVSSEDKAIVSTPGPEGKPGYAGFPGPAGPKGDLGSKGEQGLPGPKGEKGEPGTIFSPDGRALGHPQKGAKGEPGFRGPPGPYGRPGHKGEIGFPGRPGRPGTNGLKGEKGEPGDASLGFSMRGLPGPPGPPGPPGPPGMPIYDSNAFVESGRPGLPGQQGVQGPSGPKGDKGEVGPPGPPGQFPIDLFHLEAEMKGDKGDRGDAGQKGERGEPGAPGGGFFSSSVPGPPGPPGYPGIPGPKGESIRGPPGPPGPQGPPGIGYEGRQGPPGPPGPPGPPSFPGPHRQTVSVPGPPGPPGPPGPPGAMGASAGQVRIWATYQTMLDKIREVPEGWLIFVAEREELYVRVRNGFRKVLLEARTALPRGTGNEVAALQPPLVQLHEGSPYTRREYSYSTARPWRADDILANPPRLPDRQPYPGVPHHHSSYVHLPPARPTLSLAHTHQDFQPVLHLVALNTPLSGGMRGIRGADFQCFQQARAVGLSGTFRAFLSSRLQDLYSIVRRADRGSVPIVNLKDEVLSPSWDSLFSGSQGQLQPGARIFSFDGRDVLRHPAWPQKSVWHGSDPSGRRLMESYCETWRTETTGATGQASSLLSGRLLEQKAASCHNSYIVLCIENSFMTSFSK

Molecule | cleavage of recombinant NC1 fragment (Western blot of degradation products) | cleavage of NC1 fragments at pH 5.5, 6.5 and 7.5 (gel)
matrix metalloproteinase-2 (MMP-2), active enzyme | Treatment of the recombinant NC1 fragment of type XVIII collagen with MMP-2 or -9, similar to control, did not produce NC1 degradation products | 
matrix metalloproteinase-9 (MMP-9), active enzyme | Treatment of the recombinant NC1 fragment of type XVIII collagen with MMP-2 or -9, similar to control, did not produce NC1 degradation products | 
matrix metalloproteinase-14 (MMP-14), active enzyme | MMP-7 and MMP-14 cleaved the recombinant NC1 fragment to produce neostatin-7, neostatin-14 and several endostatin-containing fragments | 
B1 | MMP-7 and MMP-14 cleaved the recombinant NC1 fragment to produce neostatin-7, neostatin-14 and several endostatin-containing fragments | the cleavage of collagen XVIII/NC1 by MMP-7 is pH sensitive, and proceeds less efficiently at more acidic pH
